From publication PMC8913300, “Two distinct classes of cochaperones compete for the EEVD motif in heat shock protein 70 to tune its chaperone activities” (The Journal of Biological Chemistry, 2022)

Assays:
[1] = target: Hsp70 EEVD motif (Homo sapiens) (UniProt P0DMV8); details: cited from earlier work
[2] = target: Hsp72 tracer FITC-Ahx-…; test: fluorescence polarisation; saturation binding; 20 nM fluorescent Hsp72 tracer, J-domain protein titrated in 2x dilutions (110-0.013 μM told for DnaJB4); 50 mM Tris, 15 mM NaCl, 1 mM DTT, 0.01% Triton X-100, pH 8.0; 30 min at room temperature

Sequence of Hsp70 EEVD motif (Homo sapiens) (P0DMV8 whole entry, looked up): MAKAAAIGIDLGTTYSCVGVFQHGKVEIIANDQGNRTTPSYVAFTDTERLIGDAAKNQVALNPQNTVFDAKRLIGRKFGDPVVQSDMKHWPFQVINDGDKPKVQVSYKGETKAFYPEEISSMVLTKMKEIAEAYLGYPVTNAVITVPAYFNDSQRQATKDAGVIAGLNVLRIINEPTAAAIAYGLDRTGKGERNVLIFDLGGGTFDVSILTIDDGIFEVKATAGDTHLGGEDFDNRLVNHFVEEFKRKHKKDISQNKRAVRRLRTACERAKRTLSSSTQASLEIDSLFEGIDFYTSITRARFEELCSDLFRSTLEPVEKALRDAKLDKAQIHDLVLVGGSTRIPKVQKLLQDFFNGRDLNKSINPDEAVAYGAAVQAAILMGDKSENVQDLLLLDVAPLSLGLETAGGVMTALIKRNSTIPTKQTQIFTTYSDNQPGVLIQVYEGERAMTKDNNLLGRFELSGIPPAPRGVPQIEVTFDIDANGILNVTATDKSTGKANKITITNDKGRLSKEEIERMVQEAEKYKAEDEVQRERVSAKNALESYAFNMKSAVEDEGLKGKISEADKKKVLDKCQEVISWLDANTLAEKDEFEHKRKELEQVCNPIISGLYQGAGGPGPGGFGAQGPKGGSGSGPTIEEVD
Sequence of DnaJB1 CTD I (P25685 161-243): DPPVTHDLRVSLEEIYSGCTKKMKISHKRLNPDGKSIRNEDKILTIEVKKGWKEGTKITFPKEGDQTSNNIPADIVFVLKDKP

## DnaJB1 CTD I (from UniProt P25685)
[1]
  Kd: 15 µM

## DnaJB4 QPD mutant (from UniProt Q9UDY4 1-337) (natural protein)
[2]
  Kd: 2.44 µM
